{"source": "the Human Domainome abundance scans (Beltran et al. 2025)", "parents": {"B1": {"name": "Kinesin-like protein KIF16B, residues 1213 to 1273; numbered along this chain, Q96L93 (parent)", "chain": "ETWTVFRRYSRFREMHKTLKLKYAELAALEFPPKKLFGNKDERVIAERRSHLEKYLRDFFS"}}, "note": "± gives the uncertainty stated by the source."}
{"variants_of": "B1", "test": "abundance fitness (aPCA) (normalised: wild type 0, dead -1); higher = more abundant; growth selection in yeast, the domain comes from the species named", "details": "Homo sapiens"}
{"variant": "ETWTVFRRYSRFREMHKTLKLKYAELAALEFPPKKLFINKDERVIAERRSHLEKYLRDFFS", "note": "[G38I]", "abundance fitness": "-0.347 ± 0.18"}
{"variant": "ETWTVFRRYSRFREMHKTLKLKYAELAALEFPPKKLFKNKDERVIAERRSHLEKYLRDFFS", "note": "[G38K]", "abundance fitness": "-0.346 ± 0.1"}
{"variant": "ETWTVFRRYSRFREMHKTLKLKYAELAALEFPPKKLFLNKDERVIAERRSHLEKYLRDFFS", "note": "[G38L]", "abundance fitness": "-0.458 ± 0.064"}
{"variant": "ETWTVFRRYSRFREMHKTLKLKYAELAALEFPPKKLFMNKDERVIAERRSHLEKYLRDFFS", "note": "[G38M]", "abundance fitness": "-0.492 ± 0.11"}
{"variant": "ETWTVFRRYSRFREMHKTLKLKYAELAALEFPPKKLFNNKDERVIAERRSHLEKYLRDFFS", "note": "[G38N]", "abundance fitness": "-0.195 ± 0.16"}
{"variant": "ETWTVFRRYSRFREMHKTLKLKYAELAALEFPPKKLFPNKDERVIAERRSHLEKYLRDFFS", "note": "[G38P]", "abundance fitness": "-0.279 ± 0.1"}
{"variant": "ETWTVFRRYSRFREMHKTLKLKYAELAALEFPPKKLFQNKDERVIAERRSHLEKYLRDFFS", "note": "[G38Q]", "abundance fitness": "-0.076 ± 0.073"}
{"variant": "ETWTVFRRYSRFREMHKTLKLKYAELAALEFPPKKLFRNKDERVIAERRSHLEKYLRDFFS", "note": "[G38R]", "abundance fitness": "-0.145 ± 0.044"}
{"variant": "ETWTVFRRYSRFREMHKTLKLKYAELAALEFPPKKLFSNKDERVIAERRSHLEKYLRDFFS", "note": "[G38S]", "abundance fitness": "-0.234 ± 0.082"}
{"variant": "ETWTVFRRYSRFREMHKTLKLKYAELAALEFPPKKLFTNKDERVIAERRSHLEKYLRDFFS", "note": "[G38T]", "abundance fitness": "-0.061 ± 0.072"}
{"variant": "ETWTVFRRYSRFREMHKTLKLKYAELAALEFPPKKLFWNKDERVIAERRSHLEKYLRDFFS", "note": "[G38W]", "abundance fitness": "-0.144 ± 0.061"}
{"variant": "ETWTVFRRYSRFREMHKTLKLKYAELAALEFPPKKLFYNKDERVIAERRSHLEKYLRDFFS", "note": "[G38Y]", "abundance fitness": "-0.8 ± 0.38"}
{"variant": "ETWTVFRRYSRFREMHKTLKLKYAELAALEFPPKKLFGAKDERVIAERRSHLEKYLRDFFS", "note": "[N39A]", "abundance fitness": "0.174 ± 0.16"}
{"variant": "ETWTVFRRYSRFREMHKTLKLKYAELAALEFPPKKLFGEKDERVIAERRSHLEKYLRDFFS", "note": "[N39E]", "abundance fitness": "-0.397 ± 0.13"}
{"variant": "ETWTVFRRYSRFREMHKTLKLKYAELAALEFPPKKLFGFKDERVIAERRSHLEKYLRDFFS", "note": "[N39F]", "abundance fitness": "-0.246 ± 0.16"}
{"variant": "ETWTVFRRYSRFREMHKTLKLKYAELAALEFPPKKLFGGKDERVIAERRSHLEKYLRDFFS", "note": "[N39G]", "abundance fitness": "0.036 ± 0.065"}
{"variant": "ETWTVFRRYSRFREMHKTLKLKYAELAALEFPPKKLFGHKDERVIAERRSHLEKYLRDFFS", "note": "[N39H]", "abundance fitness": "0.05 ± 0.16"}
{"variant": "ETWTVFRRYSRFREMHKTLKLKYAELAALEFPPKKLFGIKDERVIAERRSHLEKYLRDFFS", "note": "[N39I]", "abundance fitness": "0.06 ± 0.13"}
{"variant": "ETWTVFRRYSRFREMHKTLKLKYAELAALEFPPKKLFGKKDERVIAERRSHLEKYLRDFFS", "note": "[N39K]", "abundance fitness": "0.203 ± 0.11"}
{"variant": "ETWTVFRRYSRFREMHKTLKLKYAELAALEFPPKKLFGMKDERVIAERRSHLEKYLRDFFS", "note": "[N39M]", "abundance fitness": "-0.063 ± 0.063"}
{"variant": "ETWTVFRRYSRFREMHKTLKLKYAELAALEFPPKKLFGPKDERVIAERRSHLEKYLRDFFS", "note": "[N39P]", "abundance fitness": "-0.102 ± 0.12"}
{"variant": "ETWTVFRRYSRFREMHKTLKLKYAELAALEFPPKKLFGQKDERVIAERRSHLEKYLRDFFS", "note": "[N39Q]", "abundance fitness": "0.054 ± 0.12"}
{"variant": "ETWTVFRRYSRFREMHKTLKLKYAELAALEFPPKKLFGRKDERVIAERRSHLEKYLRDFFS", "note": "[N39R]", "abundance fitness": "0.04 ± 0.041"}
{"variant": "ETWTVFRRYSRFREMHKTLKLKYAELAALEFPPKKLFGSKDERVIAERRSHLEKYLRDFFS", "note": "[N39S]", "abundance fitness": "-0.033 ± 0.07"}
{"variant": "ETWTVFRRYSRFREMHKTLKLKYAELAALEFPPKKLFGTKDERVIAERRSHLEKYLRDFFS", "note": "[N39T]", "abundance fitness": "-0.291 ± 0.082"}
{"variant": "ETWTVFRRYSRFREMHKTLKLKYAELAALEFPPKKLFGVKDERVIAERRSHLEKYLRDFFS", "note": "[N39V]", "abundance fitness": "-0.011 ± 0.077"}
{"variant": "ETWTVFRRYSRFREMHKTLKLKYAELAALEFPPKKLFGWKDERVIAERRSHLEKYLRDFFS", "note": "[N39W]", "abundance fitness": "-0.108 ± 0.063"}
{"variant": "ETWTVFRRYSRFREMHKTLKLKYAELAALEFPPKKLFGYKDERVIAERRSHLEKYLRDFFS", "note": "[N39Y]", "abundance fitness": "-0.347 ± 0.078"}
{"variant": "ETWTVFRRYSRFREMHKTLKLKYAELAALEFPPKKLFGNGDERVIAERRSHLEKYLRDFFS", "note": "[K40G]", "abundance fitness": "-0.269 ± 0.17"}
{"variant": "ETWTVFRRYSRFREMHKTLKLKYAELAALEFPPKKLFGNQDERVIAERRSHLEKYLRDFFS", "note": "[K40Q]", "abundance fitness": "-0.164 ± 0.36"}
{"variant": "ETWTVFRRYSRFREMHKTLKLKYAELAALEFPPKKLFGNKAERVIAERRSHLEKYLRDFFS", "note": "[D41A]", "abundance fitness": "0.154 ± 0.049"}
{"variant": "ETWTVFRRYSRFREMHKTLKLKYAELAALEFPPKKLFGNKCERVIAERRSHLEKYLRDFFS", "note": "[D41C]", "abundance fitness": "0.101 ± 0.12"}
{"variant": "ETWTVFRRYSRFREMHKTLKLKYAELAALEFPPKKLFGNKEERVIAERRSHLEKYLRDFFS", "note": "[D41E]", "abundance fitness": "-0.07 ± 0.076"}
{"variant": "ETWTVFRRYSRFREMHKTLKLKYAELAALEFPPKKLFGNKFERVIAERRSHLEKYLRDFFS", "note": "[D41F]", "abundance fitness": "0.149 ± 0.099"}
{"variant": "ETWTVFRRYSRFREMHKTLKLKYAELAALEFPPKKLFGNKGERVIAERRSHLEKYLRDFFS", "note": "[D41G]", "abundance fitness": "0.038 ± 0.056"}
{"variant": "ETWTVFRRYSRFREMHKTLKLKYAELAALEFPPKKLFGNKHERVIAERRSHLEKYLRDFFS", "note": "[D41H]", "abundance fitness": "-0.025 ± 0.22"}
{"variant": "ETWTVFRRYSRFREMHKTLKLKYAELAALEFPPKKLFGNKIERVIAERRSHLEKYLRDFFS", "note": "[D41I]", "abundance fitness": "0.394 ± 0.1"}
{"variant": "ETWTVFRRYSRFREMHKTLKLKYAELAALEFPPKKLFGNKKERVIAERRSHLEKYLRDFFS", "note": "[D41K]", "abundance fitness": "0.028 ± 0.073"}
{"variant": "ETWTVFRRYSRFREMHKTLKLKYAELAALEFPPKKLFGNKLERVIAERRSHLEKYLRDFFS", "note": "[D41L]", "abundance fitness": "0.332 ± 0.044"}
{"variant": "ETWTVFRRYSRFREMHKTLKLKYAELAALEFPPKKLFGNKMERVIAERRSHLEKYLRDFFS", "note": "[D41M]", "abundance fitness": "0.231 ± 0.075"}
{"variant": "ETWTVFRRYSRFREMHKTLKLKYAELAALEFPPKKLFGNKNERVIAERRSHLEKYLRDFFS", "note": "[D41N]", "abundance fitness": "0.08 ± 0.07"}
{"variant": "ETWTVFRRYSRFREMHKTLKLKYAELAALEFPPKKLFGNKPERVIAERRSHLEKYLRDFFS", "note": "[D41P]", "abundance fitness": "-0.167 ± 0.11"}
{"variant": "ETWTVFRRYSRFREMHKTLKLKYAELAALEFPPKKLFGNKQERVIAERRSHLEKYLRDFFS", "note": "[D41Q]", "abundance fitness": "-0.064 ± 0.14"}
{"variant": "ETWTVFRRYSRFREMHKTLKLKYAELAALEFPPKKLFGNKRERVIAERRSHLEKYLRDFFS", "note": "[D41R]", "abundance fitness": "-0.184 ± 0.048"}
